Biological target: the molecule itself
Assay: SEC; Sephadex G-150 column; 500 ul of untagged Mpn SSB at 0.3 mg/ml in 50 mM Tris-HCl pH 7.5, 135 mM NaCl; calibrated with BSA, ovalbumin and cytochrome C; fractions analysed by SDS-PAGE

B1: Mpn single-stranded DNA-binding protein (Mpn SSB), natural non-tagged form (natural protein, Mycoplasma pneumoniae, UniProt P75542 1-166, looked up)
chain: MNRVFLFGKLSFDPNKLQTRTNNIGASFSLACIDSSGFNDSKSYIRITAWGKVASFVLTLKPGDSVFVEGRLSTYKMNNRSDDPNSKATYALQVIADKVYRPDEENSLEQPVDKATVIDSPFLAAKTNATENELAQAFPISLDDEDDDINPILNNDSQLEEESDDE
notes: 166 amino acids, 18.4 kDa; ORF amplified from genomic DNA of strain MAC (ATCC 15492) with primers from the initiation codon to the termination codon; expressed in its natural, non-tagged form; Cloned from strain MAC; the genome entry for MPN229 is of strain M129; also called MPN229 protein product; M. pneumoniae SSB; source: E. coli BL21(DE3), pET-11c-MpnSSB, purified (ammonium sulphate …)
In the case of B1, the “stoichiometry N” value is reported as 4.

From article PMC2572620, “The Mycoplasma pneumoniae MPN229 gene encodes a protein that selectively binds single-stranded DNA and stimulates Recombinase A-mediated DNA strand exchange” (BMC Microbiology, 2008)
